Earlier results in paper PMC9696605.
pKd: −log10 of the molar value.

Molecular target: Fyn SH3 (Homo sapiens) (UniProt P06241)
Sequence (P06241 79-146): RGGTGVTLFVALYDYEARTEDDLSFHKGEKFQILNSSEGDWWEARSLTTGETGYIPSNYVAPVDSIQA

Chain of MBP (P02686 whole entry): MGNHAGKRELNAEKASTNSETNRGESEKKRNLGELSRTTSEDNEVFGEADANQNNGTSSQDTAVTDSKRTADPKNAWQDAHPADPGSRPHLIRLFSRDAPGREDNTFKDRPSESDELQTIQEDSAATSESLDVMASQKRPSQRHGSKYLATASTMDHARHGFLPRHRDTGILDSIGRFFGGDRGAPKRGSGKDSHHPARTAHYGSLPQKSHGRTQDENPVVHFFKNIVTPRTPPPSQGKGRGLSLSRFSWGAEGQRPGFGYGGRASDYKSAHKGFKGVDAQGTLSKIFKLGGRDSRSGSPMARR

pKd: 5.22
Substance: MBP (from UniProt P02686)
